Molecular target: IgG class antibody in the serum of a patient with IgA nephropathy which showed positive in example 1
Assay: inhibition ELISA: serum pre-incubated with 1 µg/ml peptide solution (1:1), then added to immobilized hinge peptide-BSA; anti-human IgG, absorbancy at 490 nm

Binder	difference in the absorption between the added group and the blank solution
PSPSC [synthetic peptide Pro Ser Pro Ser Cys]	> 10%
PTPSP [synthetic peptide Pro Thr Pro Ser Pro]	> 10%
PSTPP [synthetic peptide Pro Ser Thr Pro Pro]	> 10%
PSPST [synthetic peptide Pro Ser Pro Ser Thr]	> 10%
TPPTP [synthetic peptide Thr Pro Pro Thr Pro]	> 10%
PVPST [synthetic peptide Pro Val Pro Ser Thr]	> 10%

Source: US20030017619A1
